Data set [1] deals with the molecule itself. The data set can be described thus: cryo-EM structure; ImcA with the substrate analog GMPCPP, 10 mg/ml, 3.07 Å, C2 symmetry.
Data set [2] concerns the molecule itself. In words: SEC + native gel or EMSA; purified CHASE4 domain in solvent.

B1: PA1851 protein (purified ImcA) (natural protein)
chain: MLARDSLVQAGLPDNPYARQLRNGFRWLRFEKELENEFREFLSWNSLMQRRAAIGVAFLIWALFIVADWMMVDIRLHPSLFEQLLGVRLGMIGLLLVVWPAAFLPSLRKVGDAIAPYCLLLINLAVLACDVLFEWHGVPRFTQLGATLGILAVFFPLGLAFWACVRLALLCLALNLAVFLLFGGEENLRTNLLNTLYNGLVVLICSFALYLQDYAQREQFLGRRLLGMMAEQDSLTGLVNRRYYELLAQRALEQGAREEKGVALILVDVDDFKAYNDHYGHPAGDAALRQLGVVLRQGARRPLDIAARLGGEEFAVLLYDSEEGNTLAIAERLRQAVEALGIEHLGSSAGPCLTISLGVAYSTSGMGLDALYREADRALYEAKDAGRNAVRVAFRQHDRLE
notes: ImcA (PA1851) of Pseudomonas aeruginosa PAO1; 6TM domain L47-E231, GGDEF domain R241-A393; Homodimer in the cryo-EM structure with GMPCPP; source: E. coli BL21 (DE3), purified (membrane fraction, DDM, Strep-Tactin, Superose 6)
Regarding B1, the binding result in data set [1] is “binds”.

B2: CHASE4 domain of IsmP (CHASE4^IsmP) (domain or fragment)
chain: not shown
notes: CHASE4 domain of IsmP (PA2072) of Pseudomonas aeruginosa PAO1; interface residues Q51, W55 and P247 lie outside 59-220; also called CHASE4 (IsmP^40-255); source: E. coli BL21, purified (HisTrap HP)
As for B2, the “stoichiometry N” value in data set [2] is 2.

The values are drawn from paper PMC10904736, “A c-di-GMP signaling module controls responses to iron in Pseudomonas aeruginosa” (Nature Communications, 2024).
